# From patent US7029700B2, “Micronized freeze-dried particles” (Brown University Research Foundation, priority 2000, dated 2006)
# How the values were obtained:
# [1] = hGH aggregation during FLM, SEC-HPLC; format: physicochemical
# Excerpt: This frozen emulsion was then lyophilized for 48 hrs to remove both the aqueous and organic solvent.
# [2] = Oral GH delivery, serum hGH by ELISA; format: in vivo; conditions: rats, single oral dose by gavage in corn oil
# Experimental: CD male rats (250 to 300 g) were obtained from Charles River Laboratories. Group 1 was fed 1.24 mg of stock GH emulsified in 1 ml of USP corn oil; Group 2 was fed 50 mg of PIN microspheres (2B43099-2.47% Zn-GH in PLGA) in 1 ml of corn oil; Group 3 was fed 50 mg of PIN microspheres (2B51799 - 2.47% Stock GH, 16% FeO in PLGA) in 1 ml of corn oil. Microspheres were suspended in corn oil by vortexing followed by brief (5 s) probe sonication. Stock GH was similarly emulsified in corn oil by vortexing and probe sonication. Animals were fasted overnight, briefly anesthetized with methoxyfluorane, and formulations fed via gavage with an 18-G stainless steel feeding tube and serum from all animals obtained according to the following schedule: −1 hr (pre-feeding control), 0.5 hr, 1 hr, 2 hr, 3 hr, 4 hr, 6 hr, 24 hr, 48 hr, and 72 hr post-feeding. Serum samples obtained via tail bleeding were analyzed for hGH using the hGH specific ELISA (DSL Inc, Webster. Tex.) according to manufacturer's protocols.
substance,measurement,setting,value
hGH: Stock human growth hormone (20 mg/ml) incorporated into PLGA 50:50 by FLM under varied conditions,aggregation of best formulation combination,"[1]; ethyl acetate, stock GH containing 0.2% F127, agitation time 15 s",0.7%
same,Percent Aggregation (SEC-HPLC),"[1]; ethyl acetate, 15 s vortex, 0.05% F127 + T20, 24 hr",1.9%
same,Percent Aggregation (SEC-HPLC),"[1]; ethyl acetate, 15 s vortex, 0.2% F127 + T20, 1 hr",1.0/1.0%
same,Percent Aggregation (SEC-HPLC),"[1]; ethyl acetate, 15 s vortex, 0.2% F127 + T20, 24 hr",1.0/1.0%
same,Percent Aggregation (SEC-HPLC),"[1]; ethyl acetate, 15 s vortex, 0.2% F127, 1 hr",0.7/0.7%
same,Percent Aggregation (SEC-HPLC),"[1]; ethyl acetate, 15 s vortex, 0.2% F127, 24 hr",0.7/0.7%
same,Percent Aggregation (SEC-HPLC),"[1]; ethyl acetate, 60 s vortex, 0.05% F127 + T20, 1 hr",0.9%
same,Percent Aggregation (SEC-HPLC),"[1]; ethyl acetate, 60 s vortex, 0.05% F127 + T20, 24 hr",1.0%
same,Percent Aggregation (SEC-HPLC),"[1]; ethyl acetate, 60 s vortex, 0.05% F127, 24 hr",2.0%
same,Percent Aggregation (SEC-HPLC),"[1]; ethyl acetate, 60 s vortex, 0.2% F127 + T20, 1 hr",1.1/1.1%
same,Percent Aggregation (SEC-HPLC),"[1]; ethyl acetate, 60 s vortex, 0.2% F127 + T20, 24 hr",1.1/1.1%
same,Percent Aggregation (SEC-HPLC),"[1]; ethyl acetate, 60 s vortex, 0.2% F127, 1 hr",1.5%
same,Percent Aggregation (SEC-HPLC),"[1]; ethyl acetate, 60 s vortex, 0.2% F127, 24 hr",1.7%
same,Percent Aggregation (SEC-HPLC),"[1]; methylene chloride, 15 s vortex, 0.05% F127 + T20, 1 hr",2.2%
same,Percent Aggregation (SEC-HPLC),"[1]; methylene chloride, 15 s vortex, 0.05% F127 + T20, 24 hr",2.7%
same,Percent Aggregation (SEC-HPLC),"[1]; methylene chloride, 15 s vortex, 0.05% F127, 1 hr",2.0%
same,Percent Aggregation (SEC-HPLC),"[1]; methylene chloride, 15 s vortex, 0.05% F127, 24 hr",4.5%
same,Percent Aggregation (SEC-HPLC),"[1]; methylene chloride, 15 s vortex, 0.2% F127 + T20, 1 hr",3.7%
same,Percent Aggregation (SEC-HPLC),"[1]; methylene chloride, 15 s vortex, 0.2% F127 + T20, 24 hr",8.8%
same,Percent Aggregation (SEC-HPLC),"[1]; methylene chloride, 15 s vortex, 0.2% F127, 1 hr",2.4%
same,Percent Aggregation (SEC-HPLC),"[1]; methylene chloride, 15 s vortex, 0.2% F127, 24 hr",5.0%
same,Percent Aggregation (SEC-HPLC),"[1]; methylene chloride, 60 s vortex, 0.05% F127 + T20, 1 hr",4.4%
same,Percent Aggregation (SEC-HPLC),"[1]; methylene chloride, 60 s vortex, 0.05% F127 + T20, 24 hr",11.4%
same,Percent Aggregation (SEC-HPLC),"[1]; methylene chloride, 60 s vortex, 0.05% F127, 24 hr",4.8%
same,Percent Aggregation (SEC-HPLC),"[1]; methylene chloride, 60 s vortex, 0.2% F127 + T20, 1 hr",10.2%
same,Percent Aggregation (SEC-HPLC),"[1]; methylene chloride, 60 s vortex, 0.2% F127 + T20, 24 hr",12.9%
same,Percent Aggregation (SEC-HPLC),"[1]; methylene chloride, 60 s vortex, 0.2% F127, 1 hr",4.2%
same,Percent Aggregation (SEC-HPLC),"[1]; methylene chloride, 60 s vortex, 0.2% F127, 24 hr",7.0%
stock GH: 1.24 mg of stock GH emulsified in 1 ml of USP corn oil,serum hGH Cmax,[2],3.37 ± 2.14 ng/mL
